Assay: yeast display, Sf9 membrane polyspecificity reagent, FACS + sequencing; frameworks hold sequencing errors
Outline: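 After 36–48 hours of galactose induction, yeast (Saccharomyces cerevisiae BJ5465) displaying a synthetic nanobody library were stained at 4 °C for 1 hour with 10% biotinylated, detergent-solubilized Sf9 membrane reagent. Streptavidin microbeads enriched the stained cells before FACS sorting into low and high (top ~1%) gates on anti-HA and streptavidin fluorescence. Each clone's polyreactivity label reflects its gate of origin.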

Sequence | polyreactivity (PSR sort gate)
QVHLVESGGGLVQAGGSLRLSCAASGSTFDPNAMGWYTQAPGKERELVAAISYTGGRTYYADSVKGRFTISRDKAKNTVYLQMNSLKPEATAVYYCAVLVVGSPTQDEPYVSGVEHDYWGQGTQVTVSS | low polyreactivity
QVQLVESGGGLVQAGGSLRLSCAASGSTLVFYAMGWYRQAPGKERELVAAIDSDGGTYYADSVKGRFTISRDNAKNTVYLQMNSLKPEDTAVYYCNAAGALIFGEGYYVEYDYDYWGQGTQVTVSS | low polyreactivity
QVQLVESGGGLVQAGGSLRLSCAASGSIFYRYAMGWYRQAPGKERELVAAISYSGGSTYYADSVKGRFTISRDNAKNTVYLQMNSQKPEDTAVYYCAKDYPPPISDYSRYYGYGYWGKGTQVTVSS | low polyreactivity
QVQLVESGGGLVQAGGSLRLSCAASGRISYANSMGWYRQAPGKESELVASITYSAGSTYADSVKGRFTISRDNAKNTVYLQMNSLKPEDTAVYYCAKRPSQHYRSYLMDYWGQGTQVTVSS | low polyreactivity
QVQLVESGGGLVQAGGSLRLSSASSGSTFSLNAMGWYRQAPGTERELVAAISSSTGRTSYADSVKGRFTISRDNAKNTVYLQMTSLNPEDTAVYYCAADVYESLYFPYDSWRQGTQVTVSS | low polyreactivity
QVQRVESGGGLVQAGGSLRLSCAASGFIFTSNARGWYRPAPGKERELVAASTKSGGSTYYADSVKGRFTISRDNAKNTVYLQMNSLKPEDTAVYYCAAYPTSRYKYEYWGQGTQVTVSS | high polyreactivity
QVQLVESGGGLVQAGGSLRLSCAASGLIFSYYAMGWYRQAPGKERELVAAIDWISGSTYYADSVKGRFTISRDNAKNTVYLQMNSLKPEDTAVYYCAAYGSFWYAGFGYWGQGTQVTVSS | low polyreactivity
QDQLVESGGGLVQAGGSLRLSCAPSGFIFSNYAMGWYRHGPGKERELVAAISFTGSNTYYADSVKGRFTISRDYAKNTVYLKMNSLKPEDTAVYFCNAPLEWGVYAAQNWDEGYWGQGSQVTVSS | low polyreactivity
QVQLVESGGGLVQAGGSLRLSCAASGRIFRVYAMGWYRQAPGKERELVAAISSYGGSTYYADSVKGRFTISRDNAKNTVYLQMNSLIPEDTAVYYCAAESSPDGYFLSDYWGQGTQVTVSS | low polyreactivity
QVQLVESGGGLVQAGGSLRLSCAASGSIFPYNVMGWYRQAPGKERELVAAISTRGGRTYYADSVKGRFTISRDNAKNTVYLQMNSLKPEDTAVYYCATAGGPYSASGYYWGQGTQVTVSS | high polyreactivity
QVQLVESGGGLVQAGGSLRLSCAASGLIFRYKAMGWYRQAPGKERELVAAISRSRGTTYYADSVKGRFTISRDNAKNTVYLQMNSLKPEDTAVYYCATRISQSYYNYGYWGQGTQVTVSS | high polyreactivity
QVQLVESAGGLVQAGGSLRLSCDASGSIFTTNAMGWYRQAPGKERELVAAITSTAGSTYYADSVKGRFKISRDNAKNTVYLQMNSLKPEDTAVYYCAATYNVGVKAWYDYWGQGSQVTVSS | high polyreactivity
QVQLVESGGGLVQAGGSLRLSCAASGFTFRRNAMGWYRQAPGKERELVASITINGGSTTYADSVKGRFTISRDNAKNTVYLQMNSLKPEDTAVYYCNKRYRTYRSVPQYEYWGQGTQVTVSS | high polyreactivity
QVQLVESGGGLVQAGGSLRLSCAASGRIFYRNAMGWYRQAPGKERELVAAITGSTGNTYYADSVKGRFTISRDNAKNTVYLQMNSLKPEDTAVYYCIAGLGRWWHYPATYYYYWGQGTQVTVSS | low polyreactivity
QVQLVESGGGLVQAGGSLRLSCAASGFIFNYNAMGWYRQAPGKERELVAAISGTGVRTYYADSVKGRFTISRDNAKNTVYLQMNSLKPEDTAVYYCNAYYGYIPVSGYRNDYWGQGTQVTVSS | low polyreactivity
QVQLVESGGVLVQAGGSLRLSCAASGSTFYGYAMGWYRQAPAKERELVAAITRSGGSTYYADSVKGRFTISRDNAKNTVYLQMNSLKPEDTAVYYCARQDRDTYYHRYYYGGQGTQVTVSS | high polyreactivity
QVQLVESGGGLVQAGGSLRLSCAASGRIITRNVMGWYRQAPGKERELVAAISTSGGSTFYADSVKGRFTISRDNAKKTVYLQMNSLKPEDTAVYYCAKRRYGKLEFWGQGTQVTVSS | high polyreactivity
QVQLVESGGGLVQAGGSLRLSCAASGRIFRYYTMGWYRQAPGKERELVAAITARGTRTYYADSVKGRFTISRDNAKNTVYLQMNSLKPEETSVYYCAADRYIYFAPSMDYWGQGTQVTVSS | high polyreactivity
QVQLVESGGGLVQAGGSLRLSCAASGRIFSRYAMGWYRQAPGKERELVAAINKSGGSTYYADSVKGRFTISRDNAKNTVYLQMNSLKPEDTAVYYCNAVYYYGRRRYGYWGQGTQVTVSS | high polyreactivity
QVQLVESGGGLVQAGGSLRLSCAASGFIFAEYAMGWYRQAPGKERELVAAITSGGSTSYADSVKGRFTISRDNAKNTVYLQMNSLIPEDTAVYYCAATWYYHYNDWKHWYEYGYWGQGTQVTVSS | low polyreactivity
QVQLVESGGGLVQAGGSLRLSCAASGIIFVIYAMVWYRQAPGKERELVAAISSSGGSTYYADSVKGRFTISRDNAKNTVYLLMNSLKPEDTAVYYCAVALSHYFGGYGYWGQGTQLTVSS | low polyreactivity

From the nanobody polyreactivity screen of Harvey et al. (2022)
